This assay has as its target Tag1-LAG3 protein (UniProt P18627). As to the kind of experiment: HTRF blocking assay (Cisbio kit): Tag1-LAG3 with Tag2-FGL1 and antibody. On the technique in general: TR-FRET usually uses a lanthanide donor and a delayed reading to cut background.

Tag1-LAG3 protein, sequence (P18627 23-450): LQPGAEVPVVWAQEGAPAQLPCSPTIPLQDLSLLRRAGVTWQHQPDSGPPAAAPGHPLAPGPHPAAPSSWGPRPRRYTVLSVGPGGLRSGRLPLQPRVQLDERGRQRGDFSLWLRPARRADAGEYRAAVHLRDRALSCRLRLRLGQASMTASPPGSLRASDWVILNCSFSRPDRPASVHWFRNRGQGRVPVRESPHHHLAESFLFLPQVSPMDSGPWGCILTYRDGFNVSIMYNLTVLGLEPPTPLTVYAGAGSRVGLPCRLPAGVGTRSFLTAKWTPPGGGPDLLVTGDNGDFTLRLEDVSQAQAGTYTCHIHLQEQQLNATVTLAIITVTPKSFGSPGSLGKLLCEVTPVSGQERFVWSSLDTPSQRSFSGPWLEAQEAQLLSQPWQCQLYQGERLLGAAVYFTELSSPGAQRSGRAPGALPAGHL

Substance Positive control (ab40465) (antibody) gave an IC50 (read off the curve) of 2 µg/mL.

The record behind these values is patent US20230074657A1.
